We go through 167 variants from the RNAGym collection of RNA variant scans (doi:10.1093/nar/gkz1192).

B1: CPEB3 Ribozyme (parent)
chain: UAACAGGGGGCCACAGCAGAAGCGUUCACGUCGCAGCCCCUGUCAGAUUCUGGUGAAUCUGCGAAUUCUGCUGUAUAUCUC

Variants of B1 are the subject of this data set. In words: self-cleavage, relative activity (ratio to wild type); higher = more cleavage; in vitro, sequencing. In a few lines:
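Relative activity compares each variant's cleaved/total read fraction with that of the unmutated ribozyme. To get these fractions, barcoded CPEB3 ribozyme libraries from rounds of error-prone PCR were transcribed with T7 RNA polymerase for 5 hours at 37°C and then given 15 min of DNase I treatment before EDTA was added. The RNAs were reverse transcribed with template switching and sequenced on Illumina, and DNA sequencing linked barcodes to variants. A minimum of 5 reads applied, and three batches were averaged.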
Take U54A G55U: the self-cleavage turned out to be 1.15.

On to U54A G55A, for which the self-cleavage amounted to 0.8.

For G53A G73C, the self-cleavage worked out at 1.14.

U54A C59G: the self-cleavage came to 0.35.

Turning to U54G U66C, the self-cleavage worked out at 0.28.

With G53U C81G, the self-cleavage was 1.24.

As for G52C U80C, the self-cleavage was determined as 1.2.

Turning to G52C U80A, the self-cleavage was 1.22.

In the case of U54G A65G, the self-cleavage came out at 0.3.

For U54G A56U, the self-cleavage is 0.31.

Take U54G A56G: the self-cleavage worked out at 0.46.

As to G55A A57G, the self-cleavage turned out to be 0.46.

Turning to G55A A57U, the self-cleavage stood at 0.54.

Turning to U54A U69C, the self-cleavage was determined as 0.63.

Turning to U54A U69G, the self-cleavage turned out to be 0.92.

In the case of U54A U69A, the self-cleavage was 0.86.

For G52C U74A, the self-cleavage is 1.28.

Turning to U54A A75U, the self-cleavage stood at 1.21.

Regarding U54A A75G, the self-cleavage was 1.

Consider U54A A75C, for which the self-cleavage came out at 1.19.

G52A U72C: the self-cleavage was 1.21.

Regarding G52A U72G, the self-cleavage amounted to 0.94.

Take G52A U72A: the self-cleavage stood at 1.13.

Take G53A A56G: the self-cleavage is 1.

For G53A A56U, the self-cleavage came out at 0.79.

Consider G53A U80A, for which the self-cleavage stood at 1.18.

With G53A U80C, the self-cleavage was determined as 1.17.

For G52C A77G, the self-cleavage was found to be 1.16.

Take G52C A77C: the self-cleavage came to 1.11.

For G52C A64G, the self-cleavage was determined as 1.04.

For G52U U80C, the self-cleavage came to 1.05.

As for U54G C62U, the self-cleavage was 0.19.

For the variant G53U, the self-cleavage is 1.21.

In the case of G53C, the self-cleavage stood at 1.13.

Take G53A: the self-cleavage was found to be 1.13.

In the case of G53C U60A, the self-cleavage was determined as 0.56.

Turning to G53C U60C, the self-cleavage came to 0.55.

In the case of G53C U76C, the self-cleavage is 1.06.

In the case of G53C U76A, the self-cleavage was found to be 1.22.

Take G53C A56G: the self-cleavage worked out at 0.53.

Consider G53C U72A, for which the self-cleavage was 1.19.

As to G53C U72C, the self-cleavage turned out to be 1.21.

For the variant G53U U74C, the self-cleavage amounted to 1.18.

Turning to G53U U74A, the self-cleavage was determined as 1.2.

For G52A U67A, the self-cleavage is 0.51.

G53U C68U: the self-cleavage was 1.13.

Consider U54C, for which the self-cleavage came out at 1.02.

Regarding U54G, the self-cleavage worked out at 0.77.

As to U54A, the self-cleavage came to 1.09.

As for G52U U54C, the self-cleavage is 1.14.

Consider G52U U54A, for which the self-cleavage amounted to 1.09.

Turning to G53A A65G, the self-cleavage was found to be 0.52.

As to G53A A65U, the self-cleavage came out at 0.22.

Turning to G53U U76C, the self-cleavage was 1.22.

Turning to U54A C79A, the self-cleavage worked out at 1.23.

For U54A C79U, the self-cleavage worked out at 1.16.

On to U54A C79G, for which the self-cleavage came to 1.23.

Consider G52A U69C, for which the self-cleavage came out at 0.62.

As to G52A U69G, the self-cleavage is 0.98.

Consider G52A U69A, for which the self-cleavage came out at 0.84.

With U54C U67C, the self-cleavage came to 0.26.

On to U54C U67A, for which the self-cleavage is 0.48.

As to U54G U60C, the self-cleavage was determined as 0.44.

In the case of U54G U60G, the self-cleavage is 0.42.

U54G U60A: the self-cleavage was found to be 0.37.

With U54G U69C, the self-cleavage was 0.37.

Take U54G U69A: the self-cleavage was 0.62.

U54C C71U: the self-cleavage came out at 0.72.

In the case of U54C C71A, the self-cleavage worked out at 0.39.

For U54G C71A, the self-cleavage was determined as 0.42.

On to U54C U69G, for which the self-cleavage is 0.43.

On to U54C U69C, for which the self-cleavage amounted to 0.52.

As to U54C U69A, the self-cleavage is 0.57.

Turning to U54A U74A, the self-cleavage turned out to be 1.22.

Consider U54A U74G, for which the self-cleavage amounted to 1.3.

On to U54A U74C, for which the self-cleavage was 1.28.

On to U54A U58C, for which the self-cleavage turned out to be 0.69.

For the variant U54A U58A, the self-cleavage was 0.45.

In the case of U54A U58G, the self-cleavage came to 0.42.

As to U54G U76C, the self-cleavage turned out to be 0.98.

With U54A A56U, the self-cleavage turned out to be 0.66.

Turning to U54A A56G, the self-cleavage is 0.82.

Consider U54C A57C, for which the self-cleavage was 0.23.

In the case of U54C A57G, the self-cleavage was 0.66.

On to U54C A57U, for which the self-cleavage came to 0.56.

For the variant U54C U72C, the self-cleavage stood at 1.08.

As to U54C U72A, the self-cleavage came out at 0.62.

Consider U54C U72G, for which the self-cleavage stood at 0.87.

On to U54A C68U, for which the self-cleavage turned out to be 1.03.

With U54A C68A, the self-cleavage amounted to 0.44.

As for G53C U58C, the self-cleavage turned out to be 0.68.

In the case of G53A U58G, the self-cleavage was determined as 0.24.

On to G53A U58A, for which the self-cleavage came out at 0.48.

With G53A U58C, the self-cleavage was determined as 0.98.

Consider G55A A77G, for which the self-cleavage worked out at 0.96.

Take G53U A65U: the self-cleavage came to 0.25.

G53U A65G: the self-cleavage turned out to be 0.61.

As for U54C U58C, the self-cleavage is 0.48.

As for U54C U58A, the self-cleavage was determined as 0.33.

In the case of U54C C81G, the self-cleavage worked out at 1.3.

In the case of U54C C81U, the self-cleavage was determined as 1.17.

As to U54A C81U, the self-cleavage was determined as 1.2.

For U54C A56G, the self-cleavage was determined as 0.64.

Regarding U54C A56C, the self-cleavage worked out at 0.38.

On to U54C A56U, for which the self-cleavage came to 0.52.

On to G53C A64G, for which the self-cleavage was found to be 1.05.

As for G53C A64U, the self-cleavage was found to be 0.42.

G52U U58C: the self-cleavage was 0.87.

For G53C U69C, the self-cleavage was 0.64.

As for G53C U69A, the self-cleavage was 0.49.

With U54A U76C, the self-cleavage amounted to 1.04.

Turning to U54A U76A, the self-cleavage turned out to be 1.13.

Turning to U54A U66G, the self-cleavage is 0.65.

Take U54A U66C: the self-cleavage was determined as 0.49.

With G52U A65G, the self-cleavage was determined as 0.51.

Consider G52U A65U, for which the self-cleavage is 0.28.

On to U54C U78A, for which the self-cleavage came to 1.03.

As to U54C U78C, the self-cleavage was determined as 0.97.

Regarding U54C U78G, the self-cleavage turned out to be 1.07.

G52A U76C: the self-cleavage came to 1.06.

In the case of G52A U76G, the self-cleavage is 1.15.

With U54A U72C, the self-cleavage turned out to be 1.17.

Consider U54A U72G, for which the self-cleavage stood at 0.87.

For U54A U72A, the self-cleavage was 1.02.

Consider G52C A56G, for which the self-cleavage is 1.12.

G53A U54C: the self-cleavage came out at 0.92.

Regarding U54C G55U, the self-cleavage was determined as 0.78.

In the case of U54C G55A, the self-cleavage amounted to 0.62.

With G52C C68U, the self-cleavage was 1.18.

As for U54C G63A, the self-cleavage is 0.73.

For the variant U54C G63U, the self-cleavage worked out at 1.13.

Regarding U54C G63C, the self-cleavage was found to be 1.01.

On to G53U U54A, for which the self-cleavage was 0.98.

On to U54A U60A, for which the self-cleavage is 0.68.

Consider U54A U60G, for which the self-cleavage came out at 0.65.

Regarding U54A U60C, the self-cleavage was 0.67.

Take U54A G70C: the self-cleavage was 0.39.

For the variant U54G A57G, the self-cleavage worked out at 0.43.

U54G A57U: the self-cleavage was found to be 0.25.

As to G53A U69C, the self-cleavage worked out at 0.69.

Consider G53A U69A, for which the self-cleavage amounted to 0.67.

For G53C A57G, the self-cleavage was found to be 1.1.

On to U54C G70A, for which the self-cleavage stood at 0.43.

For the variant U54C C59A, the self-cleavage came out at 0.3.

With U54C C59U, the self-cleavage stood at 0.68.

With G52U U74A, the self-cleavage stood at 1.26.

With G52U U74C, the self-cleavage was 1.28.

As to U54G A77G, the self-cleavage came to 0.74.

Regarding G53A G55A, the self-cleavage was determined as 0.87.

Take G53A G55C: the self-cleavage stood at 1.01.

Consider G53A C79U, for which the self-cleavage was found to be 1.18.

Take G53A C79A: the self-cleavage is 1.22.

Consider G53A G70U, for which the self-cleavage came out at 0.44.

On to G53A G70A, for which the self-cleavage came out at 0.62.

As for U54C U76G, the self-cleavage is 0.98.

For the variant U54C U76A, the self-cleavage is 1.17.

As to U54C U76C, the self-cleavage turned out to be 1.06.

As for G53A U66C, the self-cleavage turned out to be 0.53.

G55A A65U: the self-cleavage was determined as 0.27.

For the variant U54A A77C, the self-cleavage was 1.12.

For the variant U54A A77U, the self-cleavage was found to be 1.23.

U54A A77G: the self-cleavage stood at 1.06.

G53A A64U: the self-cleavage worked out at 0.48.

For G53A A64G, the self-cleavage came out at 0.98.

As to G53U U69C, the self-cleavage was determined as 0.59.

Take G53A U67A: the self-cleavage came out at 0.55.

Turning to G53A U67C, the self-cleavage was determined as 0.41.
